Measured values as given in the supplement of paper PMC9112550, “Optimization of the antimicrobial peptide Bac7 by deep mutational scanning” (BMC Biology, 2022).

Tested on: Escherichia coli TOP10
Experiment: shrunken log2 fold change of peptide-encoding DNA abundance (4.5 h post-induction vs induction); higher = less antimicrobial activity (less host growth inhibition)
Settings: time post-induction: 4.5 h; library: site-saturation at positions 5, 18, 19, 20
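Further: peptides expressed intracellularly from a pBAD plasmid library in pooled LB shake-flask culture, induced with 0.3% L-arabinose, DNA abundance read by NGS, three biological replicates, DESeq2 with apeglm shrinkage.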

Sequence	shrunken log2 fold change
RRIRARPPRLPRPRPRPEVKPRP	0.123
RRIRFRPPRLPRPRPRPINVPRP	-0.195
RRIRFRPPRLPRPRPRPRHKPRP	0.202
RRIRKRPPRLPRPRPRPRWLPRP	0.796
RRIRPRPPRLPRPRPRPCQAPRP	0.00851
RRIRNRPPRLPRPRPRPKTYPRP	-1.23
RRIRLRPPRLPRPRPRPWPRPRP	0.113
RRIRARPPRLPRPRPRPVKHPRP	0.0139
RRIRRRPPRLPRPRPRPTGRPRP	0.489
RRIRIRPPRLPRPRPRPLVKPRP	-0.0899
RRIRWRPPRLPRPRPRPWKTPRP	0.149
RRIRQRPPRLPRPRPRPLNKPRP	-0.503
RRIRNRPPRLPRPRPRPLHWPRP	-0.273
RRIRDRPPRLPRPRPRPSLAPRP	0.474
RRIRHRPPRLPRPRPRPKCGPRP	0.0031
RRIRQRPPRLPRPRPRPVGPPRP	0.231
RRIRWRPPRLPRPRPRPTVYPRP	0.116
RRIRERPPRLPRPRPRPFLPPRP	-0.701
RRIRYRPPRLPRPRPRPFCFPRP	-0.114
RRIRARPPRLPRPRPRPGAGPRP	0.767
RRIRMRPPRLPRPRPRPSENPRP	-0.0243
RRIRGRPPRLPRPRPRPHSVPRP	-0.0536
RRIRERPPRLPRPRPRPGLHPRP	-0.124
RRIRARPPRLPRPRPRPSHCPRP	-0.101
RRIRFRPPRLPRPRPRPHLVPRP	-0.33

Sequence	shrunken log2 fold change
RRIRGRPPRLPRPRPRPLMNPRP	0.303
RRIRWRPPRLPRPRPRPRQTPRP	0.0702
RRIRHRPPRLPRPRPRPIVFPRP	-0.103
RRIRMRPPRLPRPRPRPKMLPRP	0.231
RRIRARPPRLPRPRPRPMRPPRP	0.342
RRIRYRPPRLPRPRPRPVFHPRP	-0.492
RRIRCRPPRLPRPRPRPYAIPRP	-0.803
RRIRIRPPRLPRPRPRPPPIPRP	0.141
RRIRWRPPRLPRPRPRPQRTPRP	-0.0113
RRIRFRPPRLPRPRPRPFEVPRP	-0.571
RRIRMRPPRLPRPRPRPDHYPRP	-0.0146
RRIRKRPPRLPRPRPRPGQQPRP	0.0114
RRIRIRPPRLPRPRPRPFYDPRP	-0.202
RRIRIRPPRLPRPRPRPSCHPRP	-0.243
RRIRFRPPRLPRPRPRPTYNPRP	-0.767
RRIRIRPPRLPRPRPRPREGPRP	0.229
RRIRRRPPRLPRPRPRPCCNPRP	-0.029
RRIRIRPPRLPRPRPRPQETPRP	-0.0344
RRIRKRPPRLPRPRPRPLSHPRP	0.131
RRIRCRPPRLPRPRPRPECAPRP	0.543
RRIRHRPPRLPRPRPRPKWEPRP	-0.000889
RRIRFRPPRLPRPRPRPIIDPRP	-1.61
RRIRERPPRLPRPRPRPVVCPRP	0.0991
RRIRVRPPRLPRPRPRPGGQPRP	-0.0141
RRIRHRPPRLPRPRPRPWPYPRP	-0.01

Sequence	shrunken log2 fold change
RRIRVRPPRLPRPRPRPIQDPRP	-0.134
RRIRMRPPRLPRPRPRPHDCPRP	0.0419
RRIRQRPPRLPRPRPRPRFNPRP	-0.244
RRIRYRPPRLPRPRPRPNRPPRP	0.000655
RRIRQRPPRLPRPRPRPRRFPRP	0.222
RRIRCRPPRLPRPRPRPMHYPRP	-0.24
RRIRHRPPRLPRPRPRPPCNPRP	-0.221
RRIRVRPPRLPRPRPRPQNAPRP	0.00238
RRIRNRPPRLPRPRPRPAQGPRP	0.279
RRIRMRPPRLPRPRPRPCIRPRP	-0.122
RRIRERPPRLPRPRPRPRYMPRP	-0.785
RRIRYRPPRLPRPRPRPPCQPRP	-0.212
RRIRKRPPRLPRPRPRPTGMPRP	0.128
RRIRKRPPRLPRPRPRPPHKPRP	0.835
RRIRDRPPRLPRPRPRPEWRPRP	1.08
RRIRSRPPRLPRPRPRPISTPRP	-0.102
RRIRMRPPRLPRPRPRPPEMPRP	0.329
RRIRPRPPRLPRPRPRPAAYPRP	0.0551
RRIRFRPPRLPRPRPRPIEDPRP	-0.461
RRIRVRPPRLPRPRPRPCNQPRP	0.0169
RRIRHRPPRLPRPRPRPHCCPRP	-0.156
RRIRDRPPRLPRPRPRPISLPRP	-0.0081
RRIRIRPPRLPRPRPRPNLDPRP	-0.564
RRIRQRPPRLPRPRPRPAKYPRP	-0.0291
RRIRWRPPRLPRPRPRPVIHPRP	0.162

Sequence	shrunken log2 fold change
RRIRKRPPRLPRPRPRPFAMPRP	0.359
RRIRWRPPRLPRPRPRPAAIPRP	0.302
RRIRDRPPRLPRPRPRPRTCPRP	-0.0386
RRIRPRPPRLPRPRPRPIKPPRP	-0.0651
RRIRGRPPRLPRPRPRPFNMPRP	-1.07
RRIRHRPPRLPRPRPRPKAPPRP	0.0258
RRIRDRPPRLPRPRPRPKGDPRP	0.0039
RRIRNRPPRLPRPRPRPPTDPRP	0.992
RRIRIRPPRLPRPRPRPSPFPRP	-0.81
RRIRARPPRLPRPRPRPPPFPRP	0.762
RRIRTRPPRLPRPRPRPHHWPRP	-0.0973
RRIRYRPPRLPRPRPRPVKWPRP	0.0689
RRIRQRPPRLPRPRPRPGFKPRP	-0.534
RRIRLRPPRLPRPRPRPVQMPRP	3
RRIRRRPPRLPRPRPRPWFMPRP	-0.125
RRIRWRPPRLPRPRPRPGMTPRP	0.167
RRIRRRPPRLPRPRPRPGADPRP	0.725
RRIRLRPPRLPRPRPRPGKTPRP	0.086
RRIRPRPPRLPRPRPRPLNQPRP	-0.217
RRIRKRPPRLPRPRPRPELYPRP	0.0137
RRIRCRPPRLPRPRPRPQGTPRP	-0.35
RRIRHRPPRLPRPRPRPYFGPRP	-0.131
RRIRHRPPRLPRPRPRPEQYPRP	-0.224
RRIRKRPPRLPRPRPRPQGYPRP	-0.0839
RRIRNRPPRLPRPRPRPICSPRP	-0.0669

Sequence	shrunken log2 fold change
RRIRRRPPRLPRPRPRPQRFPRP	0.294
RRIRERPPRLPRPRPRPRPEPRP	0.314
RRIRRRPPRLPRPRPRPQQPPRP	0.325
RRIRARPPRLPRPRPRPHNFPRP	-0.108
RRIRHRPPRLPRPRPRPHPGPRP	-0.0998
RRIRNRPPRLPRPRPRPFIPPRP	-0.0923
RRIRIRPPRLPRPRPRPPGGPRP	0.512
RRIRGRPPRLPRPRPRPTHNPRP	0.443
RRIRERPPRLPRPRPRPPKPPRP	0.122
RRIRFRPPRLPRPRPRPAEGPRP	0.234
RRIRARPPRLPRPRPRPTTCPRP	0.0733
RRIRHRPPRLPRPRPRPMDGPRP	-0.0367
RRIRCRPPRLPRPRPRPGMAPRP	0.418
RRIRFRPPRLPRPRPRPIDAPRP	-0.289
RRIRQRPPRLPRPRPRPNNVPRP	-0.149
RRIRKRPPRLPRPRPRPKGNPRP	0.325
RRIRARPPRLPRPRPRPMWIPRP	0.249
RRIRERPPRLPRPRPRPSSFPRP	-0.426
RRIRGRPPRLPRPRPRPRGWPRP	1.68
RRIRWRPPRLPRPRPRPNKAPRP	-0.00104
RRIRWRPPRLPRPRPRPYNKPRP	-1.34
RRIRVRPPRLPRPRPRPEAWPRP	0.181
RRIRGRPPRLPRPRPRPTTPPRP	0.681
RRIRCRPPRLPRPRPRPHGGPRP	-0.154
RRIRFRPPRLPRPRPRPRGAPRP	0.493

Sequence	shrunken log2 fold change
RRIRPRPPRLPRPRPRPDRRPRP	0.192
RRIRGRPPRLPRPRPRPCKGPRP	-0.0939
RRIRHRPPRLPRPRPRPYSNPRP	-0.392
RRIRARPPRLPRPRPRPIYAPRP	0.144
RRIRIRPPRLPRPRPRPKPQPRP	0.0958
RRIRYRPPRLPRPRPRPLIEPRP	-0.442
RRIRSRPPRLPRPRPRPHYTPRP	-0.728
RRIRHRPPRLPRPRPRPLNDPRP	0.00159
RRIRTRPPRLPRPRPRPHCNPRP	-0.453
RRIRYRPPRLPRPRPRPNLHPRP	-0.821
RRIRKRPPRLPRPRPRPEEKPRP	0.0431
RRIRDRPPRLPRPRPRPGSFPRP	0.0331
RRIRGRPPRLPRPRPRPIAHPRP	0.334
RRIRWRPPRLPRPRPRPRHYPRP	0.00846
RRIRMRPPRLPRPRPRPKTEPRP	0.155
RRIRARPPRLPRPRPRPHYSPRP	0.141
RRIRDRPPRLPRPRPRPTQAPRP	0.017
RRIRHRPPRLPRPRPRPKRNPRP	0.0354
RRIRRRPPRLPRPRPRPNVCPRP	0.0167
RRIRKRPPRLPRPRPRPIGHPRP	0.0336
RRIRPRPPRLPRPRPRPEAKPRP	1.03
RRIRRRPPRLPRPRPRPNMYPRP	-0.16
RRIRVRPPRLPRPRPRPRKAPRP	-0.124
RRIRNRPPRLPRPRPRPMHTPRP	0.0242
RRIRVRPPRLPRPRPRPQVSPRP	0.0417
